The values that follow come from article PMC4339892, “Neuropilin 1 is an entry factor that promotes EBV infection of nasopharyngeal epithelial cells” (Nature Communications, 2015).

Data set [1] concerns the molecule itself. Briefly: cross-linking; DSS cross-linking of gB-overexpressing cells, western blotting of the natural form of gB^23–431. For orientation: In western blotting, separated proteins are transferred to a membrane and probed.
In data set [2] the target is T1, GST-NRP1^ABC (soluble extracellular ABC domain of NRP1) (human, UniProt O14786-1 30-862).
T1 construct: neuropilin 1 residues 30-862 (extracellular ABC domain), amplified from pMSCV-NRP1, in pGEX-6p-1; also called pGEX-NRP1^ABC; pGEX-GST-NRP1^ABC; source: E. coli Rosetta, purified (Glutathione agarose)
T1 sequence: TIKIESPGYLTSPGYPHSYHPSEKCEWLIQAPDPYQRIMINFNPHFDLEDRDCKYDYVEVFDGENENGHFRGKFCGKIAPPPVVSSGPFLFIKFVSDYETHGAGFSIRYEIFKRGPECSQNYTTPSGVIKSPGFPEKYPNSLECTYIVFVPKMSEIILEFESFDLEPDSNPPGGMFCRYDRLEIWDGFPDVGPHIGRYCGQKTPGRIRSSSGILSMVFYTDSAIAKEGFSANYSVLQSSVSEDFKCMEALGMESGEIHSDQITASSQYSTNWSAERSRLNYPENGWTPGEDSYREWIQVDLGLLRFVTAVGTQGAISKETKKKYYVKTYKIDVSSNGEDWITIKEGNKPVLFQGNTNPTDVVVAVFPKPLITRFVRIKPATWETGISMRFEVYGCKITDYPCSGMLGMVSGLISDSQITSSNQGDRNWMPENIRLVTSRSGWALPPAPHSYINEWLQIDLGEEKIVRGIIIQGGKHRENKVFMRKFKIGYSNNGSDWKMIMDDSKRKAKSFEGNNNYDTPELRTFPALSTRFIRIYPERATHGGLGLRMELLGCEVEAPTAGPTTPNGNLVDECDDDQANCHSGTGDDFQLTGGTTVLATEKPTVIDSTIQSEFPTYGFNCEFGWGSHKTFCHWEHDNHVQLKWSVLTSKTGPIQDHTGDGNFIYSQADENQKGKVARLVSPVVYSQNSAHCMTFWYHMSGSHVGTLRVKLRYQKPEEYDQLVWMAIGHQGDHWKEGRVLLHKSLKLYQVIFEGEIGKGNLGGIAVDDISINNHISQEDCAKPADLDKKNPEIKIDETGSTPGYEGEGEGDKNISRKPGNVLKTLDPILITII
Briefly: ELISA; plates coated with 200 ng purified FLAG-gB^23–431, various concentrations of GST-NRP1 or GST-NRP2 for 2 h at RT, rabbit anti-GST and HRP-conjugated secondary antibody; apparent affinity constant. The note with it: both partners purified. For orientation: An ELISA detects its analyte on a solid surface through an enzyme-linked reagent.

B1: FLAG-gB^23–431 (EBV glycoprotein B residues 23-431, CendR motif exposed) (domain or fragment)
chain: QTPEQPAPPATTVQPTATRQQTSFPFRVCELSSHGDLFRFSSDIQCPSFGTRENHTEGLLMVFKDNIIPYSFKVRSYTKIVTNILIYNGWYADSVTNRHEEKFSVDSYETDQMDTIYQCYNAVKMTKDGLTRVYVDRDGVNITVNLKPTGGLANGVRRYASQTELYDAPGWLIWTYRTRTTVNCLITDMMAKSNSPFDFFVTTTGQTVEMSPFYDGKNKETFHERADSFHVRTNYKIVDYDNRGTNPQGERRAFLDKGTYTLSWKLENRTAYCPLQHWQTFDSTIATETGKSIHFVTDEGTSSFVTNTTVGIELPDAFKCIEEQVNKTMHEKYEAVQDRYTKGQEAITYFITSGGLLLAWLPLTPRSLATVKNLTELTTPTSSPPSSPSPPAPSAARGSTPAAVLRRRR
notes: Epstein-Barr virus glycoprotein B (gB), residues 23-431, amplified from the gB expression plasmid p2670; ends with the CendR motif 428-431 (furin cleavage site); Secreted into the supernatant; the signal peptide of the vector is not described; also called EBV-gB^23–431; pCEP-his-FLAG-gB^23–431; source: HEK-293FT, transfected, in lysate (co-IP; M2 beads for the pull-down)
B1: the “stoichiometry N” value in data set [1] is 3. Besides, in data set [2], the binding result is reported as “binds”.

For orientation: stoichiometry N means a count of units in the complex or per binding partner.
